{"source": "patent US20220406376A1", "about": "(MacroGenics, published 2022)", "binders": {"B1": {"name": "DART-1 (bispecific antibody)", "chain 1": "not shown", "chain 2": "EIVLTQSPATLSLSPGERATLSCRASQSVSSYLAWYQQKPGQAPRLLIYDASNRATGIPARFSGSGSGTDFTLTISSLEPEDFAVYYCQQRSNWPPALTFGGGTKVEIKGGGSGGGGQVQLVQSGAEVKKPGASVKVSCKASGYTFTNYGMNWVRQAPGQGLEWMGWINTNIGEPTYTEEFKGRVTMTRDTSISTAYMELSRLRSDDTAVYYCARDDGYGNRVSYWGQGTLVTVSSGGCGGGKVAACKEKVAALKEKVAALKEKVAALKE"}, "B2": {"name": "DART-F (bispecific antibody, human IgG1, kappa, L234A L235A)", "heavy": "QVQLVQSGAEVKKPGASVKVSCKASGYTFTNYGMNWVRQAPGQGLEWMGWINTNIGEPTYTEEFKGRVTMTRDTSISTAYMELSRLRSDDTAVYYCARDDGYGNRVSYWGQGTLVTVSSASTKGPSVFPLAPSSKSTSGGTAALGCLVKDYFPEPVTVSWNSGALTSGVHTFPAVLQSSGLYSLSSVVTVPSSSLGTQTYICNVNHKPSNTKVDKRVEPKSCDKTHTCPPCPAPEAAGGPSVFLFPPKPKDTLMISRTPEVTCVVVDVSHEDPEVKFNWYVDGVEVHNAKTKPREEQYNSTYRVVSVLTVLHQDWLNGKEYKCKVSNKALPAPIEKTISKAKGQPREPQVYTLPPSREEMTKNQVSLSCAVKGFYPSDIAVEWESNGQPENNYKTTPPVLDSDGSFFLVSKLTVDKSRWQQGNVFSCSVMHEALHNRYTQKSLSLSPGK", "light": "DIQMTQSPSSLSASVGDRVTITCKASQDISNYLSWFQQKPGKAPKTLIYRANRLQSGVPSRFSGSGSGTDFTLTISSLQPEDFATYYCLQHDEFPWTFGQGTKLEIKRTVAAPSVFIFPPSDEQLKSGTASVVCLLNNFYPREAKVQWKVDNALQSGNSQESVTEQDSKDSTYSLSSTLTLSKADYEKHKVYACEVTHQGLSSPVTKSFNRGEC", "chain 1": "QVQLVQSGAEVKKPGASVKVSCKASGYTFTNYGMNWVRQAPGQGLEWMGWINTNIGEPTYTEEFKGRVTMTRDTSISTAYMELSRLRSDDTAVYYCARDDGYGNRVSYWGQGTLVTVSSASTKGPSVFPLAPSSKSTSGGTAALGCLVKDYFPEPVTVSWNSGALTSGVHTFPAVLQSSGLYSLSSVVTVPSSSLGTQTYICNVNHKPSNTKVDKRVEPKSCDKTHTCPPCPAPEAAGGPSVFLFPPKPKDTLMISRTPEVTCVVVDVSHEDPEVKFNWYVDGVEVHNAKTKPREEQYNSTYRVVSVLTVLHQDWLNGKEYKCKVSNKALPAPIEKTISKAKGQPREPQVYTLPPSREEMTKNQVSLWCLVKGFYPSDIAVEWESNGQPENNYKTTPPVLDSDGSFFLYSKLTVDKSRWQQGNVFSCSVMHEALHNHYTQKSLSLSPGGGGSGGGSGGGDIQMTQTTSSLSASLGDRVTISCRASQDISNYLNWYQQKPDGTVKLLIYYTSRLHSGVPSRFSGSGSGTDYSLTISNLEQEDIATYFCQQGNTLPYTFGGGTKLEIKGGGSGGGGQVQLQQPGAELVRPGASVKLSCKASGYTFTSYWINWVKQRPGQGLEWIGNIYPSDSYTNYDQKFKDKATLTVDKSSSTAYMQLSSPTSEDSAVYYCTKSGEYGKIGYYAMDYWGQGTSVTVSSGGCGGGEVAALEKEVAALEKEVAALEKEVAALEK", "chain 2": "DIQMTQTTSSLSASLGDRVTISCRASQDISNYLNWYQQKPDGTVKLLIYYTSRLHSGVPSRFSGSGSGTDYSLTISNLEQEDIATYFCQQGNTLPYTFGGGTKLEIKGGGSGGGGQVQLQQPGAELVRPGASVKLSCKASGYTFTSYWINWVKQRPGQGLEWIGNIYPSDSYTNYDQKFKDKATLTVDKSSSTAYMQLSSPTSEDSAVYYCTKSGEYGKIGYYAMDYWGQGTSVTVSSGGCGGGKVAALKEKVAALKEKVAALKEKVAALKE"}, "B3": {"name": "DART-5 (bispecific antibody, human IgG1, kappa, L234A L235A)", "heavy": "B2 heavy", "light": "B2 light", "chain 1": "QVQLVQSGAEVKKPGASVKVSCKASGYTFTNYGMNWVRQAPGQGLEWMGWINTNIGEPTYTEEFKGRVTMTRDTSISTAYMELSRLRSDDTAVYYCARDDGYGNRVSYWGQGTLVTVSSASTKGPSVFPLAPSSKSTSGGTAALGCLVKDYFPEPVTVSWNSGALTSGVHTFPAVLQSSGLYSLSSVVTVPSSSLGTQTYICNVNHKPSNTKVDKRVEPKSCDKTHTCPPCPAPEAAGGPSVFLFPPKPKDTLMISRTPEVTCVVVDVSHEDPEVKFNWYVDGVEVHNAKTKPREEQYNSTYRVVSVLTVLHQDWLNGKEYKCKVSNKALPAPIEKTISKAKGQPREPQVYTLPPSREEMTKNQVSLWCLVKGFYPSDIAVEWESNGQPENNYKTTPPVLDSDGSFFLYSKLTVDKSRWQQGNVFSCSVMHEALHNHYTQKSLSLSPGGGGSGGGSGGGSYELTQPPSVSVSPGQTASITCSGDNIGDQYAHWYQQKPGQSPVLVIYQDKNRPSGIPERFSGSNSGNTATLTISGTQAMDEADYYCATYTGFGSLAVFGGGTKLTVLGGGSGGGGEVQLVQSGAEVKKPGESLRISCKGSGYSFSTYWISWVRQMPGKGLEWMGKIYPGDSYTNYSPSFQGQVTISADKSISTAYLQWSSLKASDTAMYYCARGYGIFDYWGQGTLVTVSSGGCGGGEVAALEKEVAALEKEVAALEKEVAALEK", "chain 2": "SYELTQPPSVSVSPGQTASITCSGDNIGDQYAHWYQQKPGQSPVLVIYQDKNRPSGIPERFSGSNSGNTATLTISGTQAMDEADYYCATYTGFGSLAVFGGGTKLTVLGGGSGGGGEVQLVQSGAEVKKPGESLRISCKGSGYSFSTYWISWVRQMPGKGLEWMGKIYPGDSYTNYSPSFQGQVTISADKSISTAYLQWSSLKASDTAMYYCARGYGIFDYWGQGTLVTVSSGGCGGGKVAALKEKVAALKEKVAALKEKVAALKE"}}, "key": {"[1]": {"target": "T1, HER2/neu on the surface of target cells (N87, JIMT-1, MCF-7, MDA-MB231) (UniProt P04626 23-1255, limits assumed)", "T1 construct": "whole, on cells", "experiment": "flow cytometry on N87 gastric cancer cells, anti-hFc APC MFI"}, "[2]": {"target": "T2, CD137 on the surface of cells (activated human T cells; engineered CHO cells) (human, UniProt Q07011 24-255)", "T2 construct": "whole, on cells; also called human CD137; cell surface expressed CD137", "T2 sequence (Q07011 24-255, change not shown)": "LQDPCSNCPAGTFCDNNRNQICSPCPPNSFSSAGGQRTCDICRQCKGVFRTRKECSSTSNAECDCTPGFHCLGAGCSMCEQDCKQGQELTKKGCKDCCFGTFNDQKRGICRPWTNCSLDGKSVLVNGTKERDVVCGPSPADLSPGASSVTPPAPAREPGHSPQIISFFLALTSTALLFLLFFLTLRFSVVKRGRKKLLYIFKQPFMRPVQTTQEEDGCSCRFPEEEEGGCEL", "experiment": "flow cytometry on activated pan T cells gated CD8, anti-hFc APC MFI"}}, "data": [{"binder": "B1", "values": [{"measurement": "EC50 (read off the curve)", "setting": "[1]", "value": "~0.4", "unit": "nM"}, {"measurement": "EC50 (read off the curve)", "setting": "[2]", "value": "~0.1", "unit": "nM"}]}, {"binder": "B2", "values": [{"measurement": "EC50 (read off the curve)", "setting": "[1]", "value": "~0.5", "unit": "nM"}, {"measurement": "EC50 (read off the curve)", "setting": "[2]", "value": "~0.5", "unit": "nM"}]}, {"binder": "B3", "values": [{"measurement": "EC50 (read off the curve)", "setting": "[1]", "value": "~0.5", "unit": "nM"}]}]}
